Reference: publication PMC5137447

Tests used:
[1] = biological target: T1, influenza A virus RNA polymerase (RNAP; PB1-PB2-PA) (Influenza A virus A/NorthernTerritories/60/68 (H3N2)) (UniProt Q910D6+Q91MB1+P03433); experiment: smFRET titration
[2] = biological target: T1, influenza A virus RNA polymerase (RNAP; PB1-PB2-PA) (Influenza A virus A/NorthernTerritories/60/68 (H3N2)); experiment: fluorescence anisotropy

Sequence: AGCGAAAGCAGGAGUUU / UAAACUCCUUGUUUCUACU [cRNA promoter 5U17/3U4]
- Kd [1]: 13 nM

Sequence: AGCGAAAGCAGGAGUUU [5' cRNA]
- Kd [2]: 44 nM

Sequence: UAAACUCCUUGUUUCUACU [3' cRNA]
- Kd [2]: > 1000 nM
